For test [1], the target named is human polyclonal IgG (Gammanorm) (human). As to the kind of experiment: column breakthrough, agarose beads, ligand 9.7 mg/ml, 6 min residence.
Test [2] shares this target. As to the kind of experiment: column breakthrough, ligand 9.7 mg/ml; after 24 h 0.5 M NaOH.
The target is the same in test [3]. As to the kind of experiment: column breakthrough; ratio to reference Zvar4.
Test [4] has the same target. As to the kind of experiment: column breakthrough, ligand 9.7 mg/ml; after 24 h 1.0 M NaOH.
Test [5] has the same target. As to the kind of experiment: column breakthrough, agarose beads, ligand 9.7 mg/ml, 6 min residence. The source holds these as a separate data set.
For test [6] the target is unchanged. As to the kind of experiment: column breakthrough, 1.0 M NaOH; ratio to reference Zvar4.
The target is the same in test [7]. As to the kind of experiment: SPR; ratio to reference Zvar4. In general terms: SPR reads the build-up and loss of mass on a sensor chip optically.
Test [8] has the same target. As to the kind of experiment: SPR, ligand on chip; CIP cycles 0.5 M NaOH.
Test [9] has the same target. As to the kind of experiment: SPR, ligand on chip; CIP cycles 1 M NaOH.
Test [10] has the same target. As to the kind of experiment: SPR, 1 M NaOH; ratio to reference Zvar4.
The target is the same in test [11]. As to the kind of experiment: column breakthrough, agarose beads, ligand […], 6 min residence.
For test [12] the target is unchanged. As to the kind of experiment: column breakthrough, ligand 7.0 mg/ml; after 24 h 0.5 M NaOH.
Test [13] has the same target. As to the kind of experiment: column breakthrough, ligand […]; after 24 h 0.5 M NaOH.
For test [14] the target is unchanged. As to the kind of experiment: column breakthrough, agarose beads, ligand 7.0 mg/ml, 6 min residence.
Test [15] shares this target. As to the kind of experiment: SPR; ratio to reference Zvar2.
The target is the same in test [16]. As to the kind of experiment: column breakthrough, ligand […]; after 24 h 1.0 M NaOH.
The target is the same in test [17]. As to the kind of experiment: column breakthrough, agarose beads, ligand 7.2 mg/ml, 6 min residence.
Test [18] shares this target. As to the kind of experiment: column breakthrough, agarose beads, ligand […], 6 min residence. This is another data set of the same source.
Test [19] has the same target. As to the kind of experiment: column breakthrough, ligand 7.2 mg/ml; after 24 h 0.5 M NaOH.
For test [20] the target is unchanged. As to the kind of experiment: SPR; ratio of remaining capacity to reference Zvar1.
Test [21] has the same target. As to the kind of experiment: SPR, ligand on chip; signal left after 96-100 CIP cycles 0.5 M NaOH.
For test [22] the target is unchanged. As to the kind of experiment: column breakthrough, agarose beads, ligand 10.8 mg/ml, 6 min residence.
The target is the same in test [23]. As to the kind of experiment: column breakthrough, ligand 10.8 mg/ml; after 24 h 0.5 M NaOH.

Data on 29 substances can be found in US20200283475A1.

Regarding “Zvar(N11K,H18K,S33K,D37E,A42R,N43A,L44I,K50R,L51Y)4 with an additional N-terminal cysteine (designed binder)”, the Initial IgG capacity Qb10 in [1] was determined as 62.1 mg/mL; in test [5] it was 56.3 mg/mL. Moreover, the Remaining IgG capacity Qb10 after six 4 h cycles was determined as 52 mg/mL in test [2] and 48.1 mg/mL in [4]. Further, the values for the Remaining IgG capacity after six 4 h cycles (%) in test [2] and in [4] were 92% and 77%, respectively. Moreover, the Capacity retention relative to ref. after six 4 h cycles in test [3] worked out at 1.53; in test [6], 1.44.
“Zvar(Q9A,N11E,D37E,Q40V,A42K,N43A,L44I)4 (designed binder)”: in test [7], the Capacity relative to ref. 100 cycles turned out to be 1.13. This substance returned a Remaining capacity 100 cycles (%) in [8] of 81%.
For “Zvar(Q9A,N11E,D37E,Q40V,A42R,N43A,L44I)4 (designed binder)”, the Capacity relative to ref. 100 cycles in test [7] was found to be 1.17. In addition, in [8], the Remaining capacity 100 cycles (%) amounted to 84%.
Regarding “Zvar(Q9A,N11E,N28A,N43A)4 (designed binder)”, in test [9], the Remaining capacity 100 cycles (%) stood at 55%. Besides, in [7], the Capacity relative to ref. 100 cycles came out at 1.19, the Capacity relative to ref. 200 cycles came out at 1.72 and the Capacity relative to ref. 300 cycles stood at 2.62. Also, the Capacity relative to ref. 100 cycles in test [10] came out at 2.04. In [8], this substance had a Remaining capacity 100 cycles (%) of 80%, a Remaining capacity 200 cycles (%) of 62% and a Remaining capacity 300 cycles (%) of 42%.
For the substance “Zvar(Q9A,N11E,N28A,N43A)4 with an additional N-terminal cysteine (designed binder)”, the Initial IgG capacity Qb10 in [11] stood at 50 mg/mL; in test [14], 49.1 mg/mL. For the same substance, the Remaining IgG capacity Qb10 after six 4 h cycles worked out at 44.1 mg/mL in test [12] and 46.2 mg/mL in [13]. Further, the figures for the Remaining IgG capacity after six 4 h cycles (%) in [12] and in test [13] were 90% and 93%, respectively.
As to “Zvar(Q9A,N11E,N28A,Q40V,A42K,N43A,L44I)4 (designed binder)”, in [7], the Capacity relative to ref. 100 cycles turned out to be 1.24. The substance further yielded a Remaining capacity 100 cycles (%) in test [8] of 84%.
With Zvar(Q9A,N11E,N43A)4 (designed binder), in test [7], the Capacity relative to ref. 100 cycles worked out at 1.21, the Capacity relative to ref. 200 cycles was found to be 1.72 and the Capacity relative to ref. 300 cycles is 2.56. In test [8], this substance showed a Remaining capacity 100 cycles (%) of 81%, a Remaining capacity 200 cycles (%) of 62% and a Remaining capacity 300 cycles (%) of 41%.
For “Zvar(Q9A,N11E,Q40V,A42K,N43A,L44I)2 with A56, P57 and K58 in linker deleted (designed binder)”, the Capacity relative to ref. 100 cycles in [15] came to 1.26. The same substance gave a Remaining capacity 100 cycles (%) in [8] of 68%.
As for “Zvar(Q9A,N11E,Q40V,A42K,N43A,L44I)2 with D2, A3 and K4 in linker deleted (designed binder)”, the Capacity relative to ref. 100 cycles in test [15] amounted to 1.27. This substance had a Remaining capacity 100 cycles (%) in test [8] of 70%.
For “Zvar(Q9A,N11E,Q40V,A42K,N43A,L44I)2 with K4, F5, D6, K7 and E8 in linker deleted (designed binder)”, in that order: 1.3 and 70%.
With “Zvar(Q9A,N11E,Q40V,A42K,N43A,L44I)2 with K58, V1 and D2 in linker deleted (designed binder)”, the Capacity relative to ref. 100 cycles in [15] stood at 1.38. Also, in [8], the Remaining capacity 100 cycles (%) worked out at 76%.
For “Zvar(Q9A,N11E,Q40V,A42K,N43A,L44I)2 with P57, K58, V1, D2 and A3 in linker deleted (designed binder)” the same measures were 1.35 and 74%.
For “Zvar(Q9A,N11E,Q40V,A42K,N43A,L44I)2 with V1, D2 and A3 in linker deleted (designed binder)” the same measures were 1.39 and 75%.
As to “Zvar(Q9A,N11E,Q40V,A42K,N43A,L44I)2 with V1, D2, A3, K4, F5, D6, K7 and E8 in linker deleted (designed binder)”, in [15], the Capacity relative to ref. 100 cycles is 1.13. The same substance displayed a Remaining capacity 100 cycles (%) in [8] of 62%.
As to “Zvar(Q9A,N11E,Q40V,A42K,N43A,L44I)2 with YEDG inserted in linker between K58 and V1 (designed binder)”, the Capacity relative to ref. 100 cycles in test [15] is 1.31. In test [8], the Remaining capacity 100 cycles (%) came to 72%.
In turn, “Zvar(Q9A,N11E,Q40V,A42K,N43A,L44I)4 (designed binder)” yielded a Remaining capacity 100 cycles (%) in test [9] of 56%. In test [7], the Capacity relative to ref. 100 cycles is 1.34, the Capacity relative to ref. 200 cycles stood at 2.06 and the Capacity relative to ref. 300 cycles is 3.56. For the same substance, the Capacity relative to ref. 100 cycles in test [10] turned out to be 2.07. In test [8], this substance displayed a Remaining capacity 100 cycles (%) of 90%, a Remaining capacity 200 cycles (%) of 74% and a Remaining capacity 300 cycles (%) of 57%.
On to “Zvar(Q9A,N11E,Q40V,A42K,N43A,L44I)4 with an additional N-terminal cysteine (designed binder)”, for which the Remaining IgG capacity Qb10 after six 4 h cycles in [16] came out at 56 mg/mL; in test [13] it was 53.6 mg/mL; in [19], 44.2 mg/mL. For the same substance, the Remaining IgG capacity after six 4 h cycles (%) was determined as 93% in test [16], 95% in test [13] and 90% in test [19]. Besides, the Initial IgG capacity Qb10 in [17] was 49 mg/mL; in [11], 56.3 mg/mL; in test [18] it was 60.3 mg/mL. The Capacity retention relative to ref. after six 4 h cycles came out at 1.5 in test [3] (ligand content 7.2 mg/ml) and 1.67 in test [6].
For the substance “Zvar(Q9A,N11E,Q40V,A42K,N43A,L44I,D53R)1 (designed binder)”, the Capacity relative to reference in test [20] is 1.3. Further, the Capacity after 96-100 cycles in [21] was 60%.
For “Zvar(Q9A,N11E,Q40V,A42K,N43A,L44I,D53W)1 (designed binder)” the same measures were 1.35 and 62%.
For “Zvar(Q9A,N11E,Q40V,A42K,N43A,L44I,D53Y)1 (designed binder)”, in that order: 1.28 and 59%.
Consider “Zvar(Q9A,N11E,Q40V,A42K,N43E,L44I)4 (designed binder)”, for which the Remaining capacity 100 cycles (%) in [9] turned out to be 54%. Besides, in test [7], the Capacity relative to ref. 100 cycles is 1.25, the Capacity relative to ref. 200 cycles came to 1.81 and the Capacity relative to ref. 300 cycles was found to be 3. In addition, in [10], the Capacity relative to ref. 100 cycles amounted to 2. In test [8], the Remaining capacity 100 cycles (%) is 84%, the Remaining capacity 200 cycles (%) was found to be 65% and the Remaining capacity 300 cycles (%) was 48%.
Regarding “Zvar(Q9A,N11E,Q40V,A42K,N43del,L44I)1 (designed binder)”, the Capacity relative to reference in test [20] was determined as 1.2. In addition, the Capacity after 96-100 cycles in test [21] amounted to 55%.
Turning to “Zvar(Q9A,N11E,Q40V,A42del,N43A,L44I)1 (designed binder)”, in test [20], the Capacity relative to reference turned out to be 1.24. The substance further yielded a Capacity after 96-100 cycles in test [21] of 57%.
As for “Zvar(Q9A,N11E,Q40del,A42K,N43A,L44I)1 (designed binder)”, in [20], the Capacity relative to reference was found to be 1.28. This substance had a Capacity after 96-100 cycles in [21] of 59%.
Turning to “Zvar(Q9A,N11K,H18K,D37E,A42R)4 with an additional N-terminal cysteine (designed binder)”, in [3], the Capacity retention relative to ref. after six 4 h cycles stood at 1.3. The substance further came in with an Initial IgG capacity Qb10 in test [22] of 56.9 mg/mL. In test [23], this substance displayed a Remaining IgG capacity Qb10 after six 4 h cycles of 52.5 mg/mL and a Remaining IgG capacity after six 4 h cycles (%) of 92%.
Take “Zvar(Q9A,N11K,H18K,D37E,A42R,N43A,L44I)1 (designed binder)”: in test [20], the Capacity relative to reference was 1.4. In test [21], this substance yielded a Capacity after 96-100 cycles of 63%.
On to “Zvar(Q9A,N11K,H18K,D37E,A42R,N43A,L44I,K50R)1 (designed binder)”, for which the Capacity relative to reference in test [20] worked out at 1.49. In test [21], the Capacity after 96-100 cycles amounted to 67%.
On to “Zvar(Q9A,N11K,H18K,S33K,D37E,A42R,N43A,L44I,K50R,L51Y)1 (designed binder)”, for which the Capacity relative to reference in test [20] is 1.28. The Capacity after 96-100 cycles in test [21] worked out at 59%.
Regarding “Zvar(Q9del,N11E,Q40V,A42K,N43A,L44I)1 (designed binder)”, in [20], the Capacity relative to reference came to 1.3. Further, the Capacity after 96-100 cycles in test [21] came out at 60%.
